Experiment [1] concerns septic shock. Particulars: urinary and recombinant TBP-1 (CHO and E. Coli); cited from earlier work.
The test system of experiment [2] is septic shock induced by LPS + D-Galactosamine, in mice. The experiment can be described thus: LPS+D-Galactosamine-induced septic shock model. In kind it is in vivo, SPF female BALB/c inbred mice. As for the experimental part:
The experiments were carried out in vivo on mice. The septic shock was induced by an i.p. administration of a mixture of LPS (0.1 μg/mouse) and D-Galactosamine (18 mg/mouse).
The treatment schedule for r-hTBP-1 based on repeated administrations (the total dose was divided into 4 administrations given at time 0 and […] and 24 hours after), was adopted. CHO r-hTBP-1 was tested, alone or in combination with DHEA, at dose levels of 62.5 and 125 μg/mouse (total dose).
DHEA was tested both in a single administration injected i.p. one hour before and contemporaneously to the septic shock-inducing agent at doses encompassed between 100 and 2.000 μg/mouse and in repeated treatment with the total dose (250 μg/mouse) divided into 4 injections given within 24 hours.
The above treatment schedules of DHEA (doses from 250 to 1,500 μl g/mouse) were followed also in combination with r-hTBP-1 which was tested at the total dose varying from 62.5 to 125 μg/mouse (divided into 4 administrations).
SPF female BALB/c inbred mice, 6–8 weeks (about 18–20 g b.w.), from Charles River were used throughout the whole study after an acclimatisation period of at least 7 days.
Unless otherwise specified, in all the experiments the mice were randomly divided into groups of 10 animals each.
Both substances were dissolved in saline. The mixture of LPS (0.1 μg/mouse) and D-Galactosamine (18 mg/mouse) was prepared by mixing equal volumes of these substances. The mixture was subsequently injected to animals by the i.p. route. This dose was selected under precious experiments as that inducing around 80% mortality calculated as the number of dead vs. total number of mice for each croup. The lethality was monitored after 24, 48, 72 and 96 hours and at day 7 post-treatment.
The drug was diluted in saline and injected by repeated administrations, i.e. i.v. immediately before the inoculum of LPS plus D-Galactosamine and s.c. 3, 6 and 24 hours later.
The effects of DHEA, alone or in combination with r-hTBP-1, were assayed after single i.p. administrations at different times in respect to LPS+D-Galactosamine injection; in particular, it was administered 1 hour before and contemporaneously to the septic shock-inducing agent.
A repeated treatment schedule was also investigated in which DHEA was administered at time 0 (septic shock induction) and 3, 6 and 24 hours later. DHEA was initially vehicled in a mixture of 2.5% alcohol and 10% rabbit serum in saline. To improve the solubility and standardise the preparation, the steroid was successively dispersed in a mixture of 2.5% alcohol and 10% phospholipid emulsion in saline.
The primary end point was the survival rate at 48 hours after induction of septic shock. The comparison of the effects of each treatment group vs. controls and among treatment groups was effected by Fisher's exact test, one-tailed. The same comparison was also performed at the other time points. The results in each treatment group were expressed as percent survival.
In all the experiments, percent survival values were calculated using the survival Tables for the follow up studies (Armitage P. Cap. XIV. Tavole di sopravvivenza in Statistica Medica, Feltrinelli, Milano). The χ^2-test was applied to each observation time by comparing the DHEA+r-hTBP-1 groups to the other groups.

Marks after values point to notes of the source that are not given here.

B1: TBP-1: urinary as well as recombinant TBP-1 (derived from both CHO and E. Coli cells), literature (protein, UniProt P19438 30-211, looked up)
extracellular domain: LVPHLGDREKRDSVCPQGKYIHPQNNSICCTKCHKGTYLYNDCPGPGQDTDCRECESGSFTASENHLRHCLSCSKCRKEMGQVEISSCTVDRDTVCGCRKNQYRHYWSENLFQCFNCSLCLNGTVHLSCQEKQNTVCTCHAGFFLRENECVSCSNCKKSLECTKLCLPQIENVKGTEDSGTT
modifications: extracellular domain
notes: urinary as well as recombinant TBP-1 (derived from both CHO and E. Coli cells), literature
On to B1, for which, in experiment [1], the “in vivo protective effects” value is “protective effects”.

B2: r-hTBP-1: CHO recombinant human TBP-1, the extracellular soluble domain of TNF-R1 (TNF Binding Protein-1) (protein, UniProt P19438 30-211, looked up)
extracellular domain: LVPHLGDREKRDSVCPQGKYIHPQNNSICCTKCHKGTYLYNDCPGPGQDTDCRECESGSFTASENHLRHCLSCSKCRKEMGQVEISSCTVDRDTVCGCRKNQYRHYWSENLFQCFNCSLCLNGTVHLSCQEKQNTVCTCHAGFFLRENECVSCSNCKKSLECTKLCLPQIENVKGTEDSGTT
modifications: extracellular domain
As to B2, the “% cumulative survival” value is 50% in experiment [2] (Table 2, r-hTBP-1 125 μg/mouse, time 0 (i.v.) and 3, 6, 24 hours (s.c.), 24 hrs); 50% in experiment [2] (Table 2, r-hTBP-1 125 μg/mouse, time 0 (i.v.) and 3, 6, 24 hours (s.c.), 48 hrs); 50% in experiment [2] (Table 2, r-hTBP-1 125 μg/mouse, time 0 (i.v.) and 3, 6, 24 hours (s.c.), 72 hrs); 50% in experiment [2] (Table 2, r-hTBP-1 125 μg/mouse, time 0 (i.v.) and 3, 6, 24 hours (s.c.), 96 hrs); 20% in experiment [2] (Table 4, r-hTBP-1 62.5 μg/mouse, time 0 (i.v.) and 3, 6, 24 hours (s.c.), 24 hr); 10% in experiment [2] (Table 4, r-hTBP-1 62.5 μg/mouse, time 0 (i.v.) and 3, 6, 24 hours (s.c.), 48 hr). The “% cumulative survival” value in experiment [2] (Table 4, r-hTBP-1 62.5 μg/mouse, time 0 (i.v.) and 3, 6, 24 hours (s.c.), 72 hr) is reported as 0%; in experiment [2] (Table 4, r-hTBP-1 62.5 μg/mouse, time 0 (i.v.) and 3, 6, 24 hours (s.c.), 96 hr) it was 0%; in experiment [2] (Table 5 group C, r-hTBP-1 62.5 μg, time 0 i.v. and 3, 6, 24 hours s.c., 24 hrs, 1st exp.), 90^a %; in experiment [2] (Table 5 group C, r-hTBP-1 62.5 μg, time 0 i.v. and 3, 6, 24 hours s.c., 24 hrs, 2nd exp.), 70^a %; in experiment [2] (Table 5 group C, r-hTBP-1 62.5 μg, time 0 i.v. and 3, 6, 24 hours s.c., 48 hrs, 1st exp.) it was 80^a %; in experiment [2] (Table 5 group C, r-hTBP-1 62.5 μg, time 0 i.v. and 3, 6, 24 hours s.c., 48 hrs, 2nd exp.), 40%. Also, the “% cumulative survival” value was 70^a % in experiment [2] (Table 5 group C, r-hTBP-1 62.5 μg, time 0 i.v. and 3, 6, 24 hours s.c., 72 hrs, 1st exp.); 30% in experiment [2] (Table 5 group C, r-hTBP-1 62.5 μg, time 0 i.v. and 3, 6, 24 hours s.c., 72 hrs, 2nd exp.); 70^a % in experiment [2] (Table 5 group C, r-hTBP-1 62.5 μg, time 0 i.v. and 3, 6, 24 hours s.c., 96 hrs, 1st exp.); 30% in experiment [2] (Table 5 group C, r-hTBP-1 62.5 μg, time 0 i.v. and 3, 6, 24 hours s.c., 96 hrs, 2nd exp.). Further, in experiment [2] (r-hTBP-1 62.5 μg/mouse alone), the “protection (survival)” value was determined as 20%. Further, the survival entry is recorded as “about 50%” in experiment [2] (r-hTBP-1 125 μg/mouse alone (suboptimal dose)) and 50% in experiment [2] (text (conclusions), r-hTBP-1 125 μg/mouse total dose alone).

Values taken from patent US7012060B1, “TNF receptor and steroid hormone in a combined therapy” (priority 1995, dated 2006).
